Literature values, collected in article PMC6484326.

Biological target: GPIIb-IIIa (Homo sapiens) (UniProt P08514)

- Kd: 100 nM
Substance: fibrinogen (from UniProt P02671)
